Assay [1] concerns the target CLR-RAMP1 heterodimer with the L34A CLR mutant (UniProt Q16602). Description: radioligand binding; competition: increasing unlabeled peptide against specific [125I-Tyr]CGRP(8–37) binding on crude membranes of transiently transfected HEK293T-RAMP1 cells, same buffer as the saturation binding; Ki from IC50 by the method of Cheng and Prusoff.
Assay [2] concerns the target CLR-RAMP1 heterodimer with the L24A,L34A CLR double mutant (UniProt Q16602). The assay is described as above.
Assay [3] concerns the target CLR-RAMP1 heterodimer, wild type calcitonin-like receptor (CLR) with receptor-activity-modifying protein-1 (RAMP1) (UniProt Q16602). The description is as above.
Assay [4] addresses CLR-RAMP1 heterodimer with the L24A CLR mutant (UniProt Q16602). The description is as above.
Assay [5] has as its target T1, CLR-RAMP1 heterodimer with the L24A CLR mutant (human | , UniProt Q16602 23-461; O60894 27-148, L24A). As to the kind of experiment: cell-based or functional assay.
Assay [6] has as its target T2, CLR-RAMP1 heterodimer with the L34A CLR mutant (human | , UniProt Q16602 23-461; O60894 27-148, L34A). As to the kind of experiment: cell-based or functional assay.
Assay [7] addresses T3, CLR-RAMP1 heterodimer, wild type calcitonin-like receptor (CLR) with receptor-activity-modifying protein-1 … (human | , UniProt Q16602 23-461; O60894 27-148). Description: cell-based or functional assay.
In assay [8] the target is T4, CLR-RAMP1 heterodimer with the L24A,L34A CLR double mutant (human | , UniProt Q16602 23-461; O60894 27-148, L24A | L34A). Description: cell-based or functional assay.
Assay [9] concerns the target T1, CLR-RAMP1 heterodimer with the L24A CLR …. Description: radioligand binding; competition: increasing unlabeled peptide against specific [125I-Tyr]CGRP(8–37) binding on crude membranes of transiently transfected HEK293T-RAMP1 cells, same buffer as the saturation binding; Ki from IC50 by the method of Cheng and Prusoff.
The target in assay [10] is T2, CLR-RAMP1 heterodimer with the L34A CLR …. Described as above.
Assay [11] deals with T3, CLR-RAMP1 heterodimer, wild type …. The description is as above.
For assay [12], the target named is T4, CLR-RAMP1 heterodimer with the …. The description is as above.

Ends that are not written are not given here.

T1 sequence (Q16602 23-461 L24A, chain 1 of 2): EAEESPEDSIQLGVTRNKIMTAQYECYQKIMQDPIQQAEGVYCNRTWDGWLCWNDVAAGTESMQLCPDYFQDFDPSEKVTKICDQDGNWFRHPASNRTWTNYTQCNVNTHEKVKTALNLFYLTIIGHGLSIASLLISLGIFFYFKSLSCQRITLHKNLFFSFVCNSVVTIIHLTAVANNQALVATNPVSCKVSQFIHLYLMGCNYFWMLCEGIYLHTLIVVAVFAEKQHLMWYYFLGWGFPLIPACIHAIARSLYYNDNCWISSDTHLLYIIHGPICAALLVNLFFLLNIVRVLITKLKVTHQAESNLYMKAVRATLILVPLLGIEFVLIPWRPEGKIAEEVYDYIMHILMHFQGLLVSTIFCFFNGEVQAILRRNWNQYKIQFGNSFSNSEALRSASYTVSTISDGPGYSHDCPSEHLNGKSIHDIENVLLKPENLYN
T1 sequence (O60894 27-148, chain 2 of 2): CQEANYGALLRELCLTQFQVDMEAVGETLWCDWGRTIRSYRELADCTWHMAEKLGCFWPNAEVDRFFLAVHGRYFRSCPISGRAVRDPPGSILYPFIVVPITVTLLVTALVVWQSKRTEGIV
T2 sequence (Q16602 23-461 L34A, chain 1 of 2): as the sequence (Q16602 23-461 L24A, chain 1 of 2) above, with A2L, L12A counted along it
T2 sequence (O60894 27-148, chain 2 of 2): as the sequence (O60894 27-148, chain 2 of 2) above
T4 sequence (Q16602 23-461 L24A/L34A, chain 1 of 2): as the sequence (Q16602 23-461 L24A, chain 1 of 2) above, with L12A counted along it
T4 sequence (O60894 27-148, chain 2 of 2): as the sequence (O60894 27-148, chain 2 of 2) above
T3 sequence (Q16602 23-461, chain 1 of 2): as the sequence (Q16602 23-461 L24A, chain 1 of 2) above, with A2L counted along it
T3 sequence (O60894 27-148, chain 2 of 2): as the sequence (O60894 27-148, chain 2 of 2) above
CLR-RAMP1 heterodimer with the L24A CLR mutant (UniProt Q16602), sequence (Q16602 23-461 L24A, chain 1 of 2): as the sequence (Q16602 23-461 L24A, chain 1 of 2) above
CLR-RAMP1 heterodimer with the L24A CLR mutant (UniProt Q16602), sequence (O60894 27-148, chain 2 of 2, further chain): as the sequence (O60894 27-148, chain 2 of 2) above
CLR-RAMP1 heterodimer with the L34A CLR mutant (UniProt Q16602), sequence (Q16602 23-461 L34A, chain 1 of 2): as the sequence (Q16602 23-461 L24A, chain 1 of 2) above, with A2L, L12A counted along it
CLR-RAMP1 heterodimer with the L34A CLR mutant (UniProt Q16602), sequence (O60894 27-148, chain 2 of 2, further chain): as the sequence (O60894 27-148, chain 2 of 2) above
CLR-RAMP1 heterodimer with the L24A,L34A CLR double mutant (UniProt Q16602), sequence (Q16602 23-461 L24A/L34A, chain 1 of 2): as the sequence (Q16602 23-461 L24A, chain 1 of 2) above, with L12A counted along it
CLR-RAMP1 heterodimer with the L24A,L34A CLR double mutant (UniProt Q16602), sequence (O60894 27-148, chain 2 of 2, further chain): as the sequence (O60894 27-148, chain 2 of 2) above
CLR-RAMP1 heterodimer, wild type calcitonin-like receptor (CLR) with receptor-activity-modifying protein-1 (RAMP1), sequence (Q16602 23-461, chain 1 of 2): as the sequence (Q16602 23-461 L24A, chain 1 of 2) above, with A2L counted along it
CLR-RAMP1 heterodimer, wild type calcitonin-like receptor (CLR) with receptor-activity-modifying protein-1 (RAMP1), sequence (O60894 27-148, chain 2 of 2, further chain): as the sequence (O60894 27-148, chain 2 of 2) above

A word on the Ki: it is a measure of affinity in units of concentration, obtained from inhibition or displacement. Turning to AcCGRP(19–37) (peptide), the Ki in [1] is 4.6 µM; in assay [2] it was 2 µM; in assay [3] it was 0.227 µM; in assay [4] it was 3 µM.

As to ACDTATCVTHRLAGLLSRSGGVVKNNFVPTNVGSKA-NH2 (not fully specified (bridges); cysteine pairing not given here) [CGRP(1–36)], the “EC50 of cAMP generation in transiently transfected HEK293T-RAMP1 cells” value in [5] was found to be 3.4 µM; in assay [6], 5.6 µM; in assay [7], 4.3 µM; in assay [8], 4.2 µM. Moreover, the Ki in assay [9], in assay [10], in assay [11] and in [12] was > 10 µM each time.
